The target of this assay is RPL14-60S ribosomal protein L14 (human) (UniProt P50914). As to the kind of experiment: ProtoArray, GST-treated control array.

Chain of 3× Flag-3×MBT (designed binder; other documents disagree on this pair) (Q9Y468 258-598): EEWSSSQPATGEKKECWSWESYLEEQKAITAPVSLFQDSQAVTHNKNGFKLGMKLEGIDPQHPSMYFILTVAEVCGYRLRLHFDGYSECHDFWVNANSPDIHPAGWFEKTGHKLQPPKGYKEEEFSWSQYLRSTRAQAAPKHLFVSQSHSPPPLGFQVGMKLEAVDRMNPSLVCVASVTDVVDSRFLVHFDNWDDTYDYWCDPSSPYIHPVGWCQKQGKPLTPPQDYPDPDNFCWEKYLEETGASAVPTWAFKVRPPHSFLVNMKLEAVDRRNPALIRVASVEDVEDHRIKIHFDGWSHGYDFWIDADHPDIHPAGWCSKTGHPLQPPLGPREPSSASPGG

“3× Flag-3×MBT (designed binder; other documents disagree on this pair)” displayed a GST Average SNR of 0.728.

Values taken from patent publication US20140274782A1, “AFFINITY REAGENTS AND METHODS FOR DETECTION, PURIFICATION, AND PROTEOMIC ANALYSIS OF METHYLATED PROTEINS” (The Board of Trustees of the Leland Stanford Junior …, priority 2013, published 2014).
